Source: patent publication US20240402174A1 (Takeda / Millennium, published 2024)
Numbering of substitutions follows the chain as printed.

B1: human mAb 1431 (antibody, V domains shown)
VH: QVQLVQSGGGLVQPGGSLRLSCAASGFAFSNHGMHWVRQAPGKGLEWLSYISGSTGAIHYANSVKGRFTISRDNARNSLDLQMNSLGDEDTAVYYCARDGPRPDGTGYAGPSNDYWGQGTLVSVSS
VL: EIVLTQSPASLSLSPGERATLSCKASRSISIYLAWYQQKPGQAPRLLIYDASYRAIGIPARFSGSGSGTDFTLTISNLEPEDFAVYYCQHRSSWPALTFGGGTKVEI
notes: also called A1431
B2: human mAb 1227 (antibody, V domains shown)
VH: QVQLVQSGGGMVQPGGSLSLSCAASGFTLSNYAMTWVRQAPGKGLEWVSSIGGSGGTTYYADSVKGRFTISRDSSMNTLYLQMSNLRAGDTAVYYCAKDKTRTLRLGYSGMDVWGQGTTVTVSS
VL: DIRLTQSPSSLSASVGDRVTITCRASQSISSYLNWYQQKPGKAPDLLIYGASSLQSGVPSRFSGSGSGTDFTLTISSLQPEDFGNYYCQQSFSTPRTFGQGTKVEL
notes: also called A1227

Experiments:
GII.4/Yerseke VLP = molecular target: T1, GII.4/Yerseke VLP (norovirus Hu/GII.4/Yerseke38/2006/NL, UniProt P54635 1-539); assay: PGM blockade assay, serially diluted mAb
T1 construct: also called Hu/GII.4/Yerseke38/2006/NL
T1 chain: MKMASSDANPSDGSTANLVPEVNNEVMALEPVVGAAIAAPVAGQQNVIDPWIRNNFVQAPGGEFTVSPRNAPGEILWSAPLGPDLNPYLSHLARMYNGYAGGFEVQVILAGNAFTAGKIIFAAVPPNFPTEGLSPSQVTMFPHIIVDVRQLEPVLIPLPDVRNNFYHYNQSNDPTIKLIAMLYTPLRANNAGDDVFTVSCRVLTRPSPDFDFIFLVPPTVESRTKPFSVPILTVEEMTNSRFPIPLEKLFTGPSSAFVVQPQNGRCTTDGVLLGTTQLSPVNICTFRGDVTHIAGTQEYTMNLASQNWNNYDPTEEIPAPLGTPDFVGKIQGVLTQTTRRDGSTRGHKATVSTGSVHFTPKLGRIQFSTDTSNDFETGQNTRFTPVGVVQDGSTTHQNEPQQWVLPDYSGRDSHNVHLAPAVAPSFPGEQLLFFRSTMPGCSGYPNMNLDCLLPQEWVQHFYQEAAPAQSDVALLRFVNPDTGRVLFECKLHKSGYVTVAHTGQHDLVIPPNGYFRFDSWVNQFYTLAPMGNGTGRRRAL
Method: (§1) Plates were washed 3 times with PBST before use. […] The mixture was transferred to the PGM-coated plates including VLP-only controls and incubation carried out for 1 h at 22° C. or 37° C. Following 3 washes with PBST, detection antibody specific for the corresponding VLP was added and the plates were incubated at room temperature for 1 h and then washed 3 times with PBST. […] Following 3 washes, enzyme substrate (ABTS, KPL) was added and allowed to react for 12 min at room temperature. ABTS Peroxidase Stop Solution (KPL) was then added and plates were read at a wavelength of 450 nm in a Molecular Devices plate reader using SoftMax Pro Software (Molecular Devices, Downingtown, PA, USA) to obtain the Optical Density (GD) of each well.
(§2) The following, day corresponding dilutions incubated with VLPs were transferred to the PGM-coated plates. The OD data was curve fit and blocking titers were calculated as the supernatant dilution interpolated at 1/2 the maximum OD for the plate. The blocking titers represent the supernatant dilution that produces a 50% reduction in VLP binding to PGM. The maximum OD for the plate was calculated from the VLP only control.

GII.4/Sydney VLP = molecular target: T2, GII.4/Sydney VLP (norovirus …, UniProt P54635 1-538); assay: PGM blockade assay, serially diluted mAb
T2 construct: also called Hu/GII.4/Sydney/NSW0514/2012/AU
T2 chain: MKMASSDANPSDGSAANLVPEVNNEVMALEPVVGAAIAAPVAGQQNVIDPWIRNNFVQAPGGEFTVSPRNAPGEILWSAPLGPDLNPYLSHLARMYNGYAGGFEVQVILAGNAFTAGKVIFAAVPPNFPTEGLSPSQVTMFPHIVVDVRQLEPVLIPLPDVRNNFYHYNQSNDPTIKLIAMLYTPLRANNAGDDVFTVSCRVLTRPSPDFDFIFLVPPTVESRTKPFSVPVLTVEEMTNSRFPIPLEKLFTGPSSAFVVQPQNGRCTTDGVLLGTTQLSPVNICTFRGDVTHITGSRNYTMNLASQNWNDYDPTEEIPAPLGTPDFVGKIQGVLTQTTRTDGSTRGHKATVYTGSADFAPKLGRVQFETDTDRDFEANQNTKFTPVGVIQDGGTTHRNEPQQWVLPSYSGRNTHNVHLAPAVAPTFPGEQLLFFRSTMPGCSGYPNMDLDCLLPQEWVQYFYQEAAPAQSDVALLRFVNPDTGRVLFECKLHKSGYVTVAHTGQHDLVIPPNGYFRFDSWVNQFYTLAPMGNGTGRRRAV
Method: as §1, §2

GII.7 VLP = molecular target: T3, GII.7 VLP (norovirus Hu/GII.7/NSW088L/2007/AUS); assay: multiplex microsphere immunoassay
T3 construct: also called Hu/GII.7/NSW088L/2007/AUS
T3 chain: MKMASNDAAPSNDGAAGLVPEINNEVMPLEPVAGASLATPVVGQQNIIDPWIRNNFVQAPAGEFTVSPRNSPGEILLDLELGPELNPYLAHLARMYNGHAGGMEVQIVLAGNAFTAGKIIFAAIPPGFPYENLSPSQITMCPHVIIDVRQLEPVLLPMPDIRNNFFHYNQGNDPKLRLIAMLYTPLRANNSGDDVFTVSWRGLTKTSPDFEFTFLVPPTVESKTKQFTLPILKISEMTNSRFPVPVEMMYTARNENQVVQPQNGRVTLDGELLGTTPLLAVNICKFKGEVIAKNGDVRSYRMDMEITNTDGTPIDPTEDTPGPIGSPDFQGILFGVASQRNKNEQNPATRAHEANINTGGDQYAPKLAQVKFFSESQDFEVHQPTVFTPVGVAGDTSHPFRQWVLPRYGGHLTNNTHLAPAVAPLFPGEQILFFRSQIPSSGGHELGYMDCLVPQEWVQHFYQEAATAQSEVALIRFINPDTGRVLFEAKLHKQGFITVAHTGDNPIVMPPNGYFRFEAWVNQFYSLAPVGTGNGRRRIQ

GII.4/Den Haag VLP = molecular target: T4, GII.4/Den Haag VLP (norovirus Hu/GII.4/DenHaag89/2006/NL, UniProt P54635 1-539); assay: multiplex microsphere immunoassay
T4 construct: also called Hu/GII.4/DenHaag89/2006/NL
T4 chain: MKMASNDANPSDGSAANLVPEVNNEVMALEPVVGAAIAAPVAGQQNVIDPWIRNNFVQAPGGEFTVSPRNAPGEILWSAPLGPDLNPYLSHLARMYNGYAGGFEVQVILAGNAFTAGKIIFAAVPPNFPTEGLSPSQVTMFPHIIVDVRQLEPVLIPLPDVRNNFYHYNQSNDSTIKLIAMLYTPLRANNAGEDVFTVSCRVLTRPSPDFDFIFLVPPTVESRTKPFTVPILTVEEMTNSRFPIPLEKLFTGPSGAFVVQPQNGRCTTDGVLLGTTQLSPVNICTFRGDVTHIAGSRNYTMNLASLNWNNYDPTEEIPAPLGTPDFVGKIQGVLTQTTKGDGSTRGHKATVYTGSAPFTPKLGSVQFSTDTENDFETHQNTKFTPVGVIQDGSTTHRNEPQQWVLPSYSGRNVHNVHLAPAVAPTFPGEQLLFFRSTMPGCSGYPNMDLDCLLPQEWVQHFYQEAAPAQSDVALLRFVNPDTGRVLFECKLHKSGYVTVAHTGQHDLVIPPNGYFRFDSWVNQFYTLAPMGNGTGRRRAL

GII.4/Consensus VLP = molecular target: T5, GII.4/Consensus VLP (norovirus GII.4 consensus sequence, UniProt P54635 1-539); assay: multiplex microsphere immunoassay
T5 chain: T1 chain with S228T, S255G, R340G, R364S, I365V, R382K, S425T

Row | Binder | blocking titer (GII.4/Yerseke VLP) | blocking titer (GII.4/Sydney VLP) | binding result (GII.7 VLP) | EC50 (GII.4/Den Haag VLP) | EC50 (GII.4/Consensus VLP) | EC50 (GII.7 VLP)
1 | B1 | 4850 | 7280 | no binding | 0.024 µg/mL | 0.07 µg/mL | –
2 | B2 | – | – | – | 0.014 µg/mL | 0.216 µg/mL | 0.009 µg/mL
